# Positions count from the first letter of the chain named. In names and notes the source's numbering stands.
# B1: E18K: hPXR protein variant, amino acid substitution of E to K at position 18 (c. 52G > A, exon 2) (protein, UniProt O75469 1-434, looked up, variant E18K)
# Nuclear receptor subfamily 1 …: MEVRPKESWNHADFVHCKDTESVPGKPSVNADEEVGGPQICRVCGDKATGYHFNVMTCEGCKGFFRRAMKRNARLRCPFRKGACEITRKTRRQCQACRLRKCLESGMKKEMIMSDEAVEERRALIKRKKSERTGTQPLGVQGLTEEQRMMIRELMDAQMKTFDTTFSHFKNFRLPGVLSSGCELPESLQAPSREEAAKWSQVRKDLCSLKVSLQLRGEDGSVWNYKPPADSGGKEIFSLLPHMADMSTYMFKGIISFAKVISYFRDLPIEDQISLLKGAAFELCQLRFNTVFNAETGTWECGRLSYCLEDTAGGFQQLLLEPMLKFHYMLKKLQLHEEEYVLMQAISLFSPDRPGVLQHRVVDQLQEQFAITLKSYIECNRPQPAHRFLFLKIMAMLTELRSINAQHTQRLLRIQDIHPFATPLMQELFGITGS
# B2: P27S: hPXR protein variant, amino acid substitution of P to S at position 27 (c. 79C > T, exon 2) (protein, UniProt O75469 1-434, looked up, variant P27S)
# Nuclear receptor subfamily 1 …: B1 Nuclear receptor subfamily 1 … with K18E, P27S
# B3: A370T: hPXR protein variant, amino acid substitution of A to T at position 370 (c. 1108G > A, exon 8) (protein, UniProt O75469 1-434, looked up, variant A370T)
# Nuclear receptor subfamily 1 …: B1 Nuclear receptor subfamily 1 … with K18E, A370T
# B4: V140M: hPXR protein variant, amino acid substitution of V to M at position 140 (c. 418G > A, exon 4) (protein, UniProt O75469 1-434, looked up, variant V140M)
# Nuclear receptor subfamily 1 …: B1 Nuclear receptor subfamily 1 … with K18E, V140M
# B5: D163G: hPXR protein variant, amino acid substitution of D to G at position 163 (c. 488A > G, exon 4) (protein, UniProt O75469 1-434, looked up, variant D163G)
# Nuclear receptor subfamily 1 …: B1 Nuclear receptor subfamily 1 … with K18E, D163G
# B6: G36R: hPXR protein variant, amino acid substitution of G to R at position 36 (c. 106G > A, exon 2) (protein, UniProt O75469 1-434, looked up, variant G36R)
# Nuclear receptor subfamily 1 …: B1 Nuclear receptor subfamily 1 … with K18E, G36R
# Test system: hPXR-dependent promoter-reporter gene plasmid pGL3(DR3)3TK(−105)
# Assay: hPXR-dependent promoter-reporter gene (luciferase) assay in co-transfected LS174T cells
# Assay type: cell-based, human
# Details: 10 μM rifampicin, 42 hours, FIG. 6A
# Description: FIG. 6: LS174T cells were co-transfected with the promoter artificial hPXR dependent reporter gene pGL3(DR3)3Tk(−105), pCMVβ and expression plasmids for hPXR variants, as indicated. Cells were treated for 42 hours with 10 μM rifampicin or 0.1% DMSO, then harvested and analyzed for luciferase and β-galactosidase activities. Data are shown as mean value ±SD. The activity of each hPXR variant in the presence of DMSO only was taken as 1 (A, B) or 100% (C). A) The effect of hPXR variants following 10 μM rifampicin. B) The effect of hPXR variants in the absence of exogenous inducers.
# The functional consequences of the protein variants were investigated in LS174T cells. LS174T cells were first co-transfected with wild-type or variant hPXR expression plasmids together with the hPXR-dependent promoter-reporter gene plasmid pGL3(DR3)3TK(−105). […] The cells were treated with the xenobiotic rifampicin, a known activator of human hPXR (Blumberg, Genes Dev (1998), 3195–3205; Lehmann, J Clin Invest (1998), 1016–1023). […] In contrast, hPXR-mediated transcriptional activation was impaired in V140M, D163G and hPXR-2 variants. […] Changes in basal activity of variants are independent from activator-dependent activity.
row,Molecule,"hPXR-mediated transcriptional activation of the reporter gene upon treatment with rifampicin, relative to wild type hPXR"
1,B1,as efficiently as wild type hPXR
2,B2,as efficiently as wild type hPXR
3,B3,slightly impaired transcriptional activation
4,B4,50 % of wild type activity
5,B5,50 % of wild type activity
6,B6,as efficiently as wild type hPXR

# Same assay, conditions: 0.1% DMSO only, 42 hours, FIG. 6B
row,Molecule,"basal activity in the absence of added hPXR activators, relative to wild type hPXR"
1,B1,lower basal activity than wild type hPXR
2,B2,lower basal activity than wild type hPXR
3,B3,207 % of wild type
4,B4,130 % of wild type
5,B5,approximately 10 % of wild type
6,B6,lower basal activity than wild type hPXR

# Source: patent US7122652B1, “Polymorphisms in the human hPXR gene and their use diagnostic and therapeutic applications” (priority 1999, dated 2006)
